Data taken from PMC4284093 (Journal of molecular biology, 2014).

Legend:
[1] = target: DEBS3 (6-deoxyerythronolide B synthase 3; modules 5 and 6 and the TE domain) (Saccharopolyspora erythraea) (UniProt Q03133); test: SEC-SAXS
[2] = target: KSAT3+KR3 (module 3 of 6-deoxyerythronolide B synthase without the ACP domain) (Saccharopolyspora erythraea); test: SEC-SAXS
[3] = target: KSAT3+KR3 (module 3 of 6-deoxyerythronolide B synthase without the ACP domain) (Saccharopolyspora erythraea); test: SEC
[4] = target: M3+TE (module 3 of 6-deoxyerythronolide B synthase fused to the TE domain) (Saccharopolyspora erythraea); test: SEC-SAXS
[5] = target: the molecule itself; test: SEC-SAXS

“DEBS3 (6-deoxyerythronolide B synthase 3; modules 5 and 6 and the TE domain), Q03133 1-3172” was tested, and the stoichiometry N [1] was 2.

For “KSAT3+KR3 (module 3 of 6-deoxyerythronolide B synthase without the ACP domain) (domain or fragment)”, the stoichiometry N [2] was 2 and the stoichiometry N [3] was 2.

Molecule “M3+TE (module 3 of 6-deoxyerythronolide B synthase fused to the TE domain) (enzyme)” has a stoichiometry N [4] of 2.

B1: TE (terminal thioesterase domain of 6-deoxyerythronolide B synthase) (domain or fragment, Saccharopolyspora erythraea)
chain: QLDSGTPAREASSALRDGYRQAGVSGRVRSYLDLLAGLSDFREHFDGSDGFSLDLVDMADGPGEVTVICCAGTAAISGPHEFTRLAGALRGIAPVRAVPQPGYEEGEPLPSSMAAVAAVQADAVIRTQGDKPFVVAGHSAGALMAYALATELLDRGHPPRGVVLIDVYPPGHQDAMNAWLEELTATLFDRETVRMDDTRLTALGAYDRLTGQWRPRETGLPTLLVSAGEPMGPWPDDSWKPTWPFEHDTVAVPGDHFTMVQEHADAIARHIDAWLGGGNS
With B1 the “stoichiometry N” value [5] was 2.
